{
  "source": "patent US20230071765A1",
  "about": "“COMPOSITIONS HAVING THIOREDOXIN ACTIVITY AND RELATED METHODS” (ORPRO THERAPEUTICS, INC., priority 2020, published 2023)",
  "molecules": {"B1": {"name": "ORP100S: thioredoxin with monothiol active site, Cys35 and non-active Cys 62, 69 and 73 substituted with serine (SEQ ID NO:29) (protein)", "chain": "MVKQIESKTAFQEALDAAGDKLVVVDFSATWCGPSKMIKPFFHSLSEKYSNVIFLEVDVDDSQDVASESEVKSMPTFQFFKKGQKVGEFSGANKEKLEATINELV", "modifications": "synthetic peptide motif"}},
  "system": "mucins of 4% HBE mucus",
  "experiment": "mucin molecular weight by GPC-MALLS",
  "assay_type": "biochemical, human",
  "conditions": "all three concentrations (0.01, 0.1, 1.0 mM), 1 hr at 37° C.; untreated 180 MDa",
  "from_the_text": "Mucus Preparation: Aseptic mucus was harvested from over 100 individual HBE cultures from 20 different CF donors and prepared to four weight-percent (4%) solids, a concentration that typifies chronic obstructive pulmonary disease (COPD) and mild CF (Hill, D. B. et al., 2014, A biophysical basis for mucus solids concentration as a candidate biomarker for airways disease, PloS one 9, e87681; Anderson, W. H. et al., 2015, The relationship of mucus concentration (hydration) to mucus osmotic pressure and transport in chronic bronchitis., Am J Resp Crit Care Med 192: 182-90). […] Creep recovery experiments were performed in which a known stress (between 0.05 and ˜100 Pa) was applied to treated or control mucus for 10 seconds, and the rheological recovery of the fluid was recorded for an additional 50 seconds. […] From the measured parameters the viscosity and elasticity of the fluid were determined as a function of applied stress. […] Mucin molecular weight determination: Molecular weight reduction following test article treatment was determined using a combination of gel-permeation chromatography with multi-angle laser light scattering on a Wyatt Heleos MALLS system. […] Mucin MW was determined by fitting a Berry model to light scattering from 11 different angles using Wyatt Astra software. […]",
  "data": [
    {"molecule": "B1", "values": [
      {"measurement": "molecular weight of mucins", "value": "ca. 150 MDa"}
    ]}
  ]
}
